This experiment concerns the target T1, heterodimeric cofactor Ufd1p/Npl4p (S. cerevisiae, UniProt P53044 1-361; P33755 1-580).
T1 sequence (looked up) 1: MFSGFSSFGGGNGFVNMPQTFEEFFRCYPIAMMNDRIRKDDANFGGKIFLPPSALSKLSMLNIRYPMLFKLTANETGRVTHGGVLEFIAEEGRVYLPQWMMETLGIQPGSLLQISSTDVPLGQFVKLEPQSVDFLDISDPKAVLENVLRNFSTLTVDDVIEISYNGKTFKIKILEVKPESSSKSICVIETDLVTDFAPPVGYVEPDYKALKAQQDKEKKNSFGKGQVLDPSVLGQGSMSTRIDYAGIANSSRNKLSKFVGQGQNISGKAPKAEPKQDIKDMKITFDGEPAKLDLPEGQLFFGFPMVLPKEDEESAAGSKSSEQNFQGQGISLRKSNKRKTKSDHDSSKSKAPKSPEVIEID
T1 sequence (looked up) 2: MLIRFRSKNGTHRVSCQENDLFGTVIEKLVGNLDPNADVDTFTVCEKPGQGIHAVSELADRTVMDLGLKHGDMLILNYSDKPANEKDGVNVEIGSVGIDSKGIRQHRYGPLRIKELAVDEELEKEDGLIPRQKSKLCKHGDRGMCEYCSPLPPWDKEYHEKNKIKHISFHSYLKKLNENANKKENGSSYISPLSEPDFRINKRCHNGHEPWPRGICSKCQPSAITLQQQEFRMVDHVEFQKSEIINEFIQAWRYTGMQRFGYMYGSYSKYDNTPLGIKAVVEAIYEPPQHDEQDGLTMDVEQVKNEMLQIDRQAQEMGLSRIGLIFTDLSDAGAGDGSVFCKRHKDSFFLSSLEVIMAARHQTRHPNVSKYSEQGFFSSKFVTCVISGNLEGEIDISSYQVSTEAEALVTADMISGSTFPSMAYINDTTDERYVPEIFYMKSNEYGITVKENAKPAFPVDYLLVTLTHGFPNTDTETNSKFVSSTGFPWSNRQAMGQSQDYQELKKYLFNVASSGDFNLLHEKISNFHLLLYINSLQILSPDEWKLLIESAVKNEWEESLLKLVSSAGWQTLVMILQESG
As to the kind of experiment: SEC.

B1: Cdc48p ATPase (enzyme, S. cerevisiae, UniProt P25694 1-835, looked up)
chain: MGEEHKPLLDASGVDPREEDKTATAILRRKKKDNMLLVDDAINDDNSVIAINSNTMDKLELFRGDTVLVKGKKRKDTVLIVLIDDELEDGACRINRVVRNNLRIRLGDLVTIHPCPDIKYATRISVLPIADTIEGITGNLFDVFLKPYFVEAYRPVRKGDHFVVRGGMRQVEFKVVDVEPEEYAVVAQDTIIHWEGEPINREDEENNMNEVGYDDIGGCRKQMAQIREMVELPLRHPQLFKAIGIKPPRGVLMYGPPGTGKTLMARAVANETGAFFFLINGPEVMSKMAGESESNLRKAFEEAEKNAPAIIFIDEIDSIAPKRDKTNGEVERRVVSQLLTLMDGMKARSNVVVIAATNRPNSIDPALRRFGRFDREVDIGIPDATGRLEVLRIHTKNMKLADDVDLEALAAETHGYVGADIASLCSEAAMQQIREKMDLIDLDEDEIDAEVLDSLGVTMDNFRFALGNSNPSALRETVVESVNVTWDDVGGLDEIKEELKETVEYPVLHPDQYTKFGLSPSKGVLFYGPPGTGKTLLAKAVATEVSANFISVKGPELLSMWYGESESNIRDIFDKARAAAPTVVFLDELDSIAKARGGSLGDAGGASDRVVNQLLTEMDGMNAKKNVFVIGATNRPDQIDPAILRPGRLDQLIYVPLPDENARLSILNAQLRKTPLEPGLELTAIAKATQGFSGADLLYIVQRAAKYAIKDSIEAHRQHEAEKEVKVEGEDVEMTDEGAKAEQEPEVDPVPYITKEHFAEAMKTAKRSVSDAELRRYEAYSQQMKASRGQFSNFNFNDAPLGTTATDNANSNNSAPSGAGAAFGSNAEEDDDLYS
Consider B1, for which the binding result is “binds”.

Source of the values: article PMC4163015 (Cell, 2014).
